# Laboratory results taken from article PMC12824264 (2025).
# B1: sENG(D):BMP9 complex (complex)
# chain 1: ETVHCDLQPVGPERGEVTYTTSQVSKGCVAQAPNAILEVHVLFLEFPTGPSQLELTLQASKQNGTWPREVLLVLSVNSSVFLHLQALGIPLHLAYNSSLVTFQEPPGVNTTELPSFPKTQILEWAAERGPITSAAELNDPQSILLRLGQAQGSLSFCMLEASQDMGRTLEWRPRTPALVRGCHLEGVAGHKEAHILRVLPGHSAGPRTVTVKVELSCAPGDLDAVLILQGPPYVSWLIDANHNMQIWTTGEYSFKIFPEKNIRGFKLPDTPQGLLGEARMLNASIVASFVELPLASIVSLHASSCGGRLQTSPAPIQTTPPKDTCSPELLMSLIQTKCADDAMTLVLKKELVAHLKCTITGLTFWDPSCEAEDRGDKFVLRSAYSSCGMQVSASMISNEAVVNILSSSSPQRKKVHCLNMDSLSFQLGLYLSPHFLQASNTIEPGQQSFVQVRVSPSVSEFLLQLDSCHLDLGPEGGTVELIQGRAAKGNCVSLLSPSPEGDPRFSFLLHFYTVPIPKTGTLSCTVALRPKTGSQDQEVHRTVFMRLNIISPDLSGCTSKG
# chain 2: SAGAGSHCQKTSLRVNFEDIGWDSWIIAPKEYEAYECKGGCFFPLADDVTPTKHAIVQTLVHLKFPTKVGKACCVPTKLSPISVLYKDDMGVPTLKYHYEGMSVAECGCR
# B2: sENG(M):BMP10 complex (complex)
# chain 1: B1 chain 1
# chain 2: NAKGNYCKRTPLYIDFKEIGWDSWIIAPPGYEAYECRGVCNYPLAEHLTPTKHAIIQALVHLKNSQKASKACCVPTKLEPISILYLDKGVVTYKFKYEGMAVSECGCR
# B3: sENG(D):BMP10 complex (complex)
# chain 1: B1 chain 1
# chain 2: B2 chain 2
# B4: sENG(M):BMP9 complex (complex)
# chain 1: B1 chain 1
# chain 2: B1 chain 2
# B5: BMP9 growth factor domain (GFD) dimer (ligand)
# chain: B1 chain 2
# B6: BMP10 growth factor domain (GFD) dimer (ligand)
# chain: B2 chain 2
# Molecular target: T1, ALK1-Fc (UniProt P37023 22-118)
# Test: SPR
row,Kd,Binder
1,0.422 nM,B1
2,1.68 nM,B2
3,2.97 nM,B3
4,0.179 nM,B4

# Molecular target: T1, ALK1-Fc
# Test: SPR
# Remark: another data set of the same source
row,koff,Binder
1,0.000236 s⁻¹,B1
2,0.00017 s⁻¹,B2
3,0.000329 s⁻¹,B3
4,0.000162 s⁻¹,B5
5,0.000124 s⁻¹,B4
6,0.000169 s⁻¹,B6
